Data published in patent US20030207290A1 (MESO SCALE TECHNOLOGIES, published 2003).
Where no end group is shown, it is not given here. [ ]: non-standard residue; d: D form. pS = N[C@@H](COP(=O)(O)O)C(=O)O

T1: EGFR-pY992 phosphopeptide, DADE(p)YLIPQQGFFSSPSTSC (phosphotyrosine at (p)Y (residue 5 of the printed peptide; EGFR Tyr992))
T1 construct: also called EGFR-pTyr992
T1 peptide: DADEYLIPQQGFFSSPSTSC

B1: βTRCP1 (EST clone IMAGE 3491843), in vitro translated, biotin-labelled (other, human, UniProt Q9Y297 1-605, looked up)
chain: MDPAEAVLQEKALKFMCSMPRSLWLGCSSLADSMPSLRCLYNPGTGALTAFQNSSEREDCNNGEPPRKIIPEKNSLRQTYNSCARLCLNQETVCLASTAMKTENCVAKTKLANGTSSMIVPKQRKLSASYEKEKELCVKYFEQWSESDQVEFVEHLISQMCHYQHGHINSYLKPMLQRDFITALPARGLDHIAENILSYLDAKSLCAAELVCKEWYRVTSDGMLWKKLIERMVRTDSLWRGLAERRGWGQYLFKNKPPDGNAPPNSFYRALYPKIIQDIETIESNWRCGRHSLQRIHCRSETSKGVYCLQYDDQKIVSGLRDNTIKIWDKNTLECKRILTGHTGSVLCLQYDERVIITGSSDSTVRVWDVNTGEMLNTLIHHCEAVLHLRFNNGMMVTCSKDRSIAVWDMASPTDITLRRVLVGHRAAVNVVDFDDKYIVSASGDRTIKVWNTSTCEFVRTLNGHKRGIACLQYRDRLVVSGSSDNTIRLWDIECGACLRVLEGHEELVRCIRFDNKRIVSGAYDGKIKVWDLVAALDPRAPAGTLCLRTLVEHSGRVFRLQFDEFQIVSSSHDDTILIWDFLNDPAAQAEPPRSPSRTYTYISR
modifications: biotin on some lysine residues (incorporated at random from biotin-Lys-tRNA)
notes: Product of a coupled transcription/translation reaction, used without purification; the text speaks of the genes in the human genome and of full-length cDNAs; also called βTRCP [c]; bTRCP1
B2: Shc1 (EST clone IMAGE 3907115), in vitro translated, biotin-labelled (other, UniProt P29353-2 1-473, looked up)
chain: MNKLSGGGGRRTRVEGGQLGGEEWTRHGSFVNKPTRGWLHPNDKVMGPGVSYLVRYMGCVEVLQSMRALDFNTRTQVTREAISLVCEAVPGAKGATRRRKPCSRPLSSILGRSNLKFAGMPITLTVSTSSLNLMAADCKQIIANHHMQSISFASGGDPDTAEYVAYVAKDPVNQRACHILECPEGLAQDVISTIGQAFELRFKQYLRNPPKLVTPHDRMAGFDGSAWDEEEEEPPDHQYYNDFPGKEPPLGGVVDMRLREGAAPGAARPTAPNAQTPSHLGATLPVGQPVGGDPEVRKQMPPPPPCPGRELFDDPSYVNVQNLDKARQAVGGAGPPNPAINGSAPRDLFDMKPFEDALRVPPPPQSVSMAEQLRGEPWFHGKLSRREAEALLQLNGDFLVRESTTTPGQYVLTGLQSGQPKHLLLVDPEGVVRTKDHRFESVSHLISYHMDNHLPIISAGSELCLQQPVERKL
modifications: biotin on some lysine residues (incorporated at random from biotin-Lys-tRNA)
B3: IkBa phosphopeptide (IkBa-24pp), LKKERLLDDRHD(p)SGLD(p)SMKDEEYC (peptide)
peptide: LKKERLLDDRHD[pS]GLD[pS]MKDEEYC
modifications: not fully specified (residue 24); also: C-terminal Cys coupled to maleimide-activated BSA
notes: Chemically synthesized; the peptide-BSA conjugate was deposited on the electrode; also called IkBa peptide; IkBa-24ppC
B4: βTRCP2 (EST clone IMAGE 4237375), in vitro translated, biotin-labelled (other, human, UniProt Q9UKB1 1-542, looked up)
chain: MEPDSVIEDKTIELMCSVPRSLWLGCANLVESMCALSCLQSMPSVRCLQISNGTSSVIVSRKRPSEGNYQKEKDLCIKYFDQWSESDQVEFVEHLISRMCHYQHGHINSYLKPMLQRDFITALPEQGLDHIAENILSYLDARSLCAAELVCKEWQRVISEGMLWKKLIERMVRTDPLWKGLSERRGWDQYLFKNRPTDGPPNSFYRSLYPKIIQDIETIESNWRCGRHNLQRIQCRSENSKGVYCLQYDDEKIISGLRDNSIKIWDKTSLECLKVLTGHTGSVLCLQYDERVIVTGSSDSTVRVWDVNTGEVLNTLIHHNEAVLHLRFSNGLMVTCSKDRSIAVWDMASATDITLRRVLVGHRAAVNVVDFDDKYIVSASGDRTIKVWSTSTCEFVRTLNGHKRGIACLQYRDRLVVSGSSDNTIRLWDIECGACLRVLEGHEELVRCIRFDNKRIVSGAYDGKIKVWDLQAALDPRAPASTLCLRTLVEHSGRVFRLQFDEFQIISSSHDDTILIWDFLNVPPSAQNETRSPSRTYTYISR
modifications: biotin on some lysine residues (incorporated at random from biotin-Lys-tRNA)
notes: Product of a coupled transcription/translation reaction, used without purification; also called βTRCP [c]; bTRCP2
B5: Phospholipase C gamma 1 (PLCγ) (EST clone IMAGE 4419252), in vitro translated, biotin-labelled (enzyme, UniProt P19174 1-1290, looked up)
chain: MAGAASPCANGCGPGAPSDAEVLHLCRSLEVGTVMTLFYSKKSQRPERKTFQVKLETRQITWSRGADKIEGAIDIREIKEIRPGKTSRDFDRYQEDPAFRPDQSHCFVILYGMEFRLKTLSLQATSEDEVNMWIKGLTWLMEDTLQAPTPLQIERWLRKQFYSVDRNREDRISAKDLKNMLSQVNYRVPNMRFLRERLTDLEQRSGDITYGQFAQLYRSLMYSAQKTMDLPFLEASTLRAGERPELCRVSLPEFQQFLLDYQGELWAVDRLQVQEFMLSFLRDPLREIEEPYFFLDEFVTFLFSKENSVWNSQLDAVCPDTMNNPLSHYWISSSHNTYLTGDQFSSESSLEAYARCLRMGCRCIELDCWDGPDGMPVIYHGHTLTTKIKFSDVLHTIKEHAFVASEYPVILSIEDHCSIAQQRNMAQYFKKVLGDTLLTKPVEISADGLPSPNQLKRKILIKHKKLAEGSAYEEVPTSMMYSENDISNSIKNGILYLEDPVNHEWYPHYFVLTSSKIYYSEETSSDQGNEDEEEPKEVSSSTELHSNEKWFHGKLGAGRDGRHIAERLLTEYCIETGAPDGSFLVRESETFVGDYTLSFWRNGKVQHCRIHSRQDAGTPKFFLTDNLVFDSLYDLITHYQQVPLRCNEFEMRLSEPVPQTNAHESKEWYHASLTRAQAEHMLMRVPRDGAFLVRKRNEPNSYAISFRAEGKIKHCRVQQEGQTVMLGNSEFDSLVDLISYYEKHPLYRKMKLRYPINEEALEKIGTAEPDYGALYEGRNPGFYVEANPMPTFKCAVKALFDYKAQREDELTFIKSAIIQNVEKQEGGWWRGDYGGKKQLWFPSNYVEEMVNPVALEPEREHLDENSPLGDLLRGVLDVPACQIAIRPEGKNNRLFVFSISMASVAHWSLDVAADSQEELQDWVKKIREVAQTADARLTEGKIMERRKKIALELSELVVYCRPVPFDEEKIGTERACYRDMSSFPETKAEKYVNKAKGKKFLQYNRLQLSRIYPKGQRLDSSNYDPLPMWICGSQLVALNFQTPDKPMQMNQALFMTGRHCGYVLQPSTMRDEAFDPFDKSSLRGLEPCAISIEVLGARHLPKNGRGIVCPFVEIEVAGAEYDSTKQKTEFVVDNGLNPVWPAKPFHFQISNPEFAFLRFVVYEEDMFSDQNFLAQATFPVKGLKTGYRAVPLKNNYSEDLELASLLIKIDIFPAKENGDLSPFSGTSLRERGSDASGQLFHGRAREGSFESRYQQPFEDFRISQEHLADHFDSRERRAPRRTRVNGDNRL
modifications: biotin on some lysine residues (incorporated at random from biotin-Lys-tRNA)
notes: also called PLCg

How the values were obtained:
[1] = target: T1, EGFR-pY992 phosphopeptide, …; test: ECL 4-spot multi-array binding assay: peptide-BSA spot, biotinylated TnT protein, Sulfo-TAG streptavidin
[2] = target: T1, EGFR-pY992 phosphopeptide, …; test: ECL 7-spot plate screen, peptide-BSA spot, biotinylated TnT protein, Ru-streptavidin; signal normalized in two steps
[3] = target: B3; test: ECL plate binding assay: peptide-BSA on electrode, biotinylated TnT protein, Sulfo-TAG streptavidin
Description: (§1) Also included were three other non specific EST clones as controls (Incyte, Palo alto, Calif.). […] Proteins were transferred into wells of the peptide-coated and BSA-blocked IPR plates. Sulfo-TAG labeled streptavidin (50 to 100 ng/well) was added to each well as the detection agent. […] The ECL signals were measured using an imaging plate reader (IPR).

[4] = target: T2, c-Myc phosphopeptide (Myc-p58Tp62S), …(p)TPPL(p)SPSRRSGL (phosphothreonine and phosphoserine in P(p)TPPL(p)S (residues 15 and 19 of the printed peptide)); test: as above
T2 construct: Chemically synthesized; control peptide; also called c-Myc peptide
Description: as §1

[5] = target: B5; test: ECL plate binding assay, peptide-BSA on electrode
[6] = target: B2; test: ECL plate binding assay, peptide-BSA on electrode
[7] = target: B3; test: ECL 4-spot multi-array binding assay: peptide-BSA spot, biotinylated TnT protein, Sulfo-TAG streptavidin

T2 sequence (peptide, as listed by the source): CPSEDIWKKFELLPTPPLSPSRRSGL

ECL signal [1] [ECL signal] | normalized ECL signal [2] | Average ECL signal [3] [ECL signal] | Average ECL signal [4] [ECL signal] | Binder | also measured
54 | 1 | – | – | B1 | –
– | – | 368 | 341 | B2 | –
– | – | – | – | B3 | binding result [5]: no binding; binding result [6]: no binding
60 | 1 | – | – | B4 | –
– | – | 341 | 316 | B5 | ECL signal [7]: 26 ECL signal
